Experiments:
Assay in all cases: IEDB peptide-MHC binding, purified MHC/competitive/radioactivity; filed as Kd, often an IC50 or EC50 that approximates it; ≥ and ≤ were set here for values at or beyond the usual limits of such assays
HLA-A*11:01 = molecular target: HLA-A*11:01
HLA-A*68:01 = molecular target: HLA-A*68:01
HLA-A*31:01 = molecular target: HLA-A*31:01
HLA-A*03:01 = molecular target: HLA-A*03:01
HLA-A*33:01 = molecular target: HLA-A*33:01
[1] = source organism: Dengue virus 4 Philippines/H241/1956
[2] = source organism: Mammarenavirus guanaritoense
[3] = source organism: Vaccinia virus WR
[4] = source organism: Dengue virus 2 Jamaica/1409/1983
[5] = source organism: Dengue virus 3 Martinique/1243/1999
[6] = source organism: SARS coronavirus Tor2
[7] = source organism: Mammarenavirus brazilense
[8] = source organism: Mammarenavirus juninense
[9] = source organism: Lassa virus Josiah
[10] = source organism: Dengue virus 2 Peru/IQT2913/1996
[11] = source organism: Dengue virus 1 Brazil/97-11/1997

Sequence	Kd (HLA-A*11:01; [3]) [nM]	Kd (HLA-A*68:01; [3]) [nM]	Kd (HLA-A*31:01; [3]) [nM]	Kd (HLA-A*03:01; [3]) [nM]	Kd (HLA-A*33:01; [3]) [nM]	other results
AANEMGLIEK						Kd (HLA-A*11:01; [1]): 281 nM
ACNKIKGKK						Kd (HLA-A*11:01; [2]): 19000 nM; Kd (HLA-A*68:01; [2]): 1010 nM; Kd (HLA-A*31:01; [2]): 1840 nM; Kd (HLA-A*03:01; [2]): 1390 nM; Kd (HLA-A*33:01; [2]): 664 nM
AFNDDGIYIR	18100	1690	618	≥ 70100	3210	
ALRGLPIRY						Kd (HLA-A*03:01; [4]): 52.8 nM
AMENLKAMLY	222	2790	≥ 41900	144	≥ 70000	
AMLFLISGK						Kd (HLA-A*11:01; [5]): 211 nM; Kd (HLA-A*03:01; [5]): 185 nM
AMSFDGFIR	327	898	71.8	9600	3150	
AQALNTLVK						Kd (HLA-A*11:01; [6]): 15.9 nM; Kd (HLA-A*68:01; [6]): 1630 nM; Kd (HLA-A*31:01; [6]): 3640 nM; Kd (HLA-A*03:01; [6]): 247 nM; Kd (HLA-A*33:01; [6]): ≥ 28700 nM
AQYKCVTIK	37.4	2180	666	15.7	10200	
AVIIRGHLR						Kd (HLA-A*11:01; [6]): 2240 nM; Kd (HLA-A*68:01; [6]): 2640 nM; Kd (HLA-A*31:01; [6]): 136 nM; Kd (HLA-A*03:01; [6]): ≥ 33400 nM; Kd (HLA-A*33:01; [6]): ≥ 28200 nM
CLFDRYFKY						Kd (HLA-A*11:01; [6]): 0.59 nM; Kd (HLA-A*68:01; [6]): 137 nM; Kd (HLA-A*31:01; [6]): 215 nM; Kd (HLA-A*03:01; [6]): 1.43 nM; Kd (HLA-A*33:01; [6]): 1550 nM
DFKEFASGR						Kd (HLA-A*33:01; [1]): 2.23 nM
DFTLFIKTGH						Kd (HLA-A*11:01; [7]): ≥ 58700 nM; Kd (HLA-A*68:01; [7]): 2480 nM; Kd (HLA-A*31:01; [7]): 4540 nM; Kd (HLA-A*33:01; [7]): 131 nM
DLLNVTYNIK	302	1670	15200	367	1110	
DMISYGGGWR						Kd (HLA-A*33:01; [1]): 506 nM
DSVCACGLFK						Kd (HLA-A*11:01; source organism: Mammarenavirus whitewaterense): 133 nM
DTVWEVQGYK						Kd (HLA-A*11:01; [6]): 74.6 nM; Kd (HLA-A*68:01; [6]): 0.881 nM; Kd (HLA-A*31:01; [6]): 7500 nM; Kd (HLA-A*03:01; [6]): 58.4 nM; Kd (HLA-A*33:01; [6]): 1680 nM
EFIRIIRPDY	≥ 69800	12200	13700	≥ 21400	934	
EKYGHLCKYH						Kd (HLA-A*11:01; [8]): ≥ 69700 nM; Kd (HLA-A*68:01; [8]): ≥ 70100 nM; Kd (HLA-A*31:01; [8]): ≥ 70000 nM; Kd (HLA-A*03:01; [8]): ≥ 70000 nM; Kd (HLA-A*33:01; [8]): ≥ 70000 nM
ELGELIGVNY	≥ 69800	≥ 37600	≥ 70000	≥ 70100	≥ 70000	
EQNLTDTNFK	1250	681	≥ 70000	17900	≥ 60600	
ESLLKETIQK	9.74	332	13200	26.7	14800	

Sequence	Kd (HLA-A*11:01; [3]) [nM]	Kd (HLA-A*68:01; [3]) [nM]	Kd (HLA-A*31:01; [3]) [nM]	Kd (HLA-A*03:01; [3]) [nM]	Kd (HLA-A*33:01; [3]) [nM]	other results
EYRLKGESR						Kd (HLA-A*33:01; [5]): 18.6 nM
FCKSCWFENK						Kd (HLA-A*31:01; [9]): 2430 nM; Kd (HLA-A*03:01; [9]): ≥ 20000 nM; Kd (HLA-A*33:01; [9]): 9190 nM
FLALGFFLR						Kd (HLA-A*68:01; [5]): 2.14 nM; Kd (HLA-A*31:01; [5]): 43 nM; Kd (HLA-A*33:01; [5]): 26.5 nM
FNMLKRERNR						Kd (HLA-A*33:01; [4]): 53.7 nM
FTDPSSVAAR						Kd (HLA-A*68:01; [1]): 67.7 nM
FTFGDTALY	192	2.27	14300	612	≥ 50000	
GAVVKSDNK	782	12500	≥ 77900	15400	≥ 77700	
GIEFADNDR	1740	762	7550	2420	6540	
GLKIEEIEK	6510	16800	13200	5630	16300	
GTGLWTHDK	0.361	156	805	24.7	≥ 65600	
GVIRSIFAR						Kd (HLA-A*11:01; [6]): 0.618 nM; Kd (HLA-A*68:01; [6]): 0.519 nM; Kd (HLA-A*31:01; [6]): 1.02 nM; Kd (HLA-A*03:01; [6]): 1300 nM; Kd (HLA-A*33:01; [6]): 118 nM
IFLFLMSGR						Kd (HLA-A*31:01; [10]): 59.9 nM; Kd (HLA-A*33:01; [10]): 10 nM
IGKMFEATAR						Kd (HLA-A*33:01; [11]): 637 nM
IIGPMFSGK	1.79	100	6320	0.73	7360	
IITVGMLIY	6770	608	1080	1520	1150	
ILARWSSFKK						Kd (HLA-A*03:01; [11]): 1.39 nM
ILKRWGTIKK						Kd (HLA-A*03:01; [4]): 47.4 nM
IMFEQYFIY	≥ 77900	205	229	3.67	3260	
IMNLEMIDER	19200	3610	1280	≥ 70100	1560	
ISGIGTFLHY	364	19700	≥ 60500	355	13800	
ITANPVVTK						Kd (HLA-A*11:01; [5]): 22.3 nM; Kd (HLA-A*68:01; [5]): 47.9 nM; Kd (HLA-A*03:01; [5]): 18.1 nM
IVMLHTTER						Kd (HLA-A*68:01; [1]): 19.7 nM; Kd (HLA-A*31:01; [1]): 2.36 nM; Kd (HLA-A*33:01; [1]): 13.9 nM

Source: the Immune Epitope Database (IEDB)
